Test results published in the supplement of paper PMC10567573.

B1: STEAP1 (parent)
chain: LWKMKPRRNLEEDDYLHKDTGETS
B2: TMEM106C (parent)
chain: SEQLVNFTGKAEMGGPFSYVYFFC

Variants of: B1
Experiment: protein stability index of a GFP-peptide fusion (GPS, HEK-293T) (PSI 1-6); higher = more stable
Conditions: c terminus: a fixed tail appended
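Also: lentivirally expressed fusions sorted by FACS into six bins by GFP to DsRed ratio, PSI derived from sequencing read proportions per bin multiplied by bin number.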

Protein stability index, by site and new letter:
D14: M 4 | N 4.4 | P 4.34 | Q 4.32 | R 4.7 | S 4.18 | T 4.46 | V 4.07 | W 3.11 | Y 3.87
Y15: A 5.02 | C 4.66 | D 5.15 | E 4.77 | F 4.14 | G 4.83 | H 4.66 | I 3.61 | K 4.84 | L 4.33 | M 4.68 | N 4.57 | P 4.81 | Q 4.92 | R 4.53 | S 5.16 | T 5.04 | V 5.07 | W 4.26
L16: A 4.74 | C 4.63 | D 4.92 | E 4.79 | F 4.26 | G 5.08 | H 4.36 | I 4.23 | K 4.59 | M 4.24 | N 4.97 | P 4.2 | Q 4.87 | R 4.1 | S 4.6 | T 4.74 | V 4.52 | W 4.19 | Y 4.14
H17: A 4.93 | C 4.32 | D 4.94 | E 4.35 | F 4.16 | G 4.5 | I 4.11 | K 4.38 | L 4.09 | M 4.29 | N 4.28 | P 4.8 | Q 4.68 | R 4.41 | S 4.54 | T 4.82 | V 4.71 | W 3.84 | Y 4.38
K18: A 5.12 | C 4.28 | D 4.7 | E 4.87 | F 3.38 | G 4.73 | H 4.62 | I 3.58 | L 3.93 | M 4.29 | N 4.51 | P 4.47 | Q 4.46 | R 4.75 | S 4.53 | T 4.6 | V 4.21 | W 3.81 | Y 4.03
D19: A 3.94 | C 3.8 | E 4.41 | F 3 | G 4.45 | H 3.83 | I 3.46 | K 4.23 | L 3.33 | M 3.81 | N 4.39 | P 4.36 | Q 4.1 | R 4.09 | S 3.48 | T 3.83 | V 3.43 | W 2.87 | Y 3.81
T20: A 4.39 | C 4.31 | D 5.09 | E 4.8 | F 3.51 | G 4.58 | H 4.26 | I 4.12 | K 3.6 | L 4.13 | M 3.84 | N 4.46 | P 4.51 | Q 4.71 | R 4.44 | S 4.19 | V 4.05 | W 3.85 | Y 3.74
G21: A 4.65 | C 4.21 | D 4.25 | E 4.65 | F 3.92 | H 4.42 | I 3.31 | K 4.26 | L 3.91 | M 3.93 | N 4.36 | P 4.77 | Q 4.33 | R 3.89 | S 4.59 | T 4.49 | V 3.64 | W 3.15 | Y 4.08
E22: A 3.92 | C 4 | D 4.47 | F 3.83 | G 4.37 | H 3.89 | I 3.73 | K 3.83 | L 4.13 | M 3.85 | N 4.22 | P 3.98 | Q 4.11 | R 3.69 | S 4.08 | T 3.7 | V 3.86 | W 2.56 | Y 3.46
T23: A 4.63 | C 4.05 | D 4.59 | E 5.03 | F 3.92 | G 4.26 | H 4.4 | I 3.53 | K 4.73 | L 4.12 | M 3.99 | N 4.37 | P 4.92 | Q 4.52 | R 4.48 | S 4.77 | V 4.12 | W 3.54 | Y 4.02
S24: A 4.61 | C 3.89 | D 4.65 | E 4.52 | F 4.22 | G 4.46 | H 4.31 | I 3.96 | K 4.47 | L 4.1 | M 4.16 | N 4.72 | P 4.3 | Q 3.85 | R 3.97 | T 4.6 | V 4.38 | W 3.5 | Y 4.11

Variants of: B2
Experiment: as above
Conditions: c terminus: a fixed tail appended

Protein stability index: each site, then its substitutions
S1: A 2.51 | C 2.6 | D 1.62 | E 2.98 | F 2.65 | G 3.79 | H 3.23 | I 3.37 | K 2.67 | L 3.63 | M 3.28 | N 2.85 | P 2.9 | Q 2.63 | R 3.55 | T 3.09 | V 3.6 | W 2.49 | Y 1.72
E2: A 2.44 | C 2.18 | D 3.75 | F 3.3 | G 2.88 | H 2.8 | I 3 | K 2.29 | L 1.91 | M 3.48 | N 3.28 | P 3.82 | Q 2.65 | R 2.85 | S 1.47 | T 2.64 | V 2.69 | W 2.95 | Y 2
Q3: A 1.85 | C 2.98 | D 3.39 | E 2.57 | F 2.76 | G 3.44 | H 3.21 | I 2.94 | K 2.79 | L 3.56 | M 2.52 | N 3.22 | R 2.4 | S 2.73 | T 2.79 | V 3.16 | W 3.02 | Y 2.99
L4: A 2.54 | C 1.94 | D 2.39 | E 2.62 | F 2.75 | H 4.32 | I 2.74 | K 3.49 | N 3.12 | P 2.07 | Q 1.93 | S 2.11 | T 3.41 | W 2.2 | Y 3.31
V5: A 2.95 | C 2.67 | D 3.94 | E 1.79 | F 2.76 | G 1.26 | H 2.52 | I 3.42 | K 3.06 | L 3.05 | M 2.83 | N 2.58 | P 4.22 | Q 2.89 | R 2.8 | S 2.45 | T 1.81 | W 4.3 | Y 3.6
N6: A 2.28 | C 3.24 | D 2.88 | E 3.28 | F 2.56 | G 3.12 | H 1.97 | I 2.71 | K 2.82 | L 1.38 | M 3.44 | P 1.58 | Q 2.39 | R 2.31 | S 2.52 | T 2.97 | V 2.18 | W 2.96 | Y 2.19
F7: C 3.4 | D 2.32 | E 4.73 | G 1.68 | H 2.79 | I 2.32 | K 2.69 | L 3.36 | M 1.98 | N 2.37 | P 3.16 | Q 1.74 | R 2.32 | S 2.03 | T 3.16 | V 2.45 | W 2.51 | Y 3.39
T8: A 3.06 | C 3.08 | E 2.29 | F 1.62 | G 2.76 | H 3.31 | I 3.12
